Measurements published in paper PMC7137382, “Structure of the Mycobacterium smegmatis α-maltose-1-phosphate synthase GlgM” (Acta Crystallographica. Section F, Structural Biology …, 2020).

Molecular target: the molecule itself
Assay: SEC; Superdex 200 10/300 GL, 50 mM bis-Tris pH 6.0, 5 mM MgCl2, 100 mM NaCl

B1: α-maltose-1-phosphate synthase GlgM from Mycobacterium smegmatis (enzyme, Mycobacterium smegmatis mc2155)
chain: MRVAMMTREYPPEVYGGAGVHVTELVAQLRKLCDVDVHCMGAPRDGAYVAHPDPTLRGANAALTMLSADLNMVNNAEAATVVHSHTWYTGLAGHLASLLYGVPHVLTAHSLEPLRPWKAEQLGGGYQVSSWVERTAVEAADAVIAVSSGMRDDVLRTYPALDPDRVHVVRNGIDTTVWYPAEPGPDESVLAELGVDLNRPIVAFVGRITRQKGVAHLVAAAHRFAPDVQLVLCAGAPDTPQIAEEVSSAVQQLAQARTGVFWVREMLPTHKIREILSAATVFVCPSVYEPLGIVNLEAMACATAVVASDVGGIPEVVADGRTGLLVHYDANDTEAYEARLAEAVNSLVADPDRAREYGVAGRERCIEEFSWAHIAEQTLEIYRKVSA
notes: GlgM (glgM gene, MSMEG_5080) from M. smegmatis mc2155, synthesised with codon usage for E. coli; A TEV cleavage site lies between the N-terminal 6×His tag and the protein; also called M. smegmatis GlgM; source: E. coli BL21 Star, purified (HisTrap FF, imidazole gradient); not shown: 6×His, N-terminal, kept
B1 was tested, and the “stoichiometry N” value was 2.
